Measured values reported in paper PMC8928218 (Frontiers in Cell and Developmental Biology, 2022).

Biological target: Pyrene-labeled G-actin (rabbit, UniProt P68135 1-377, pyrene label)
Experiment: cell-based or functional assay

fold decrease in actin monomer turnover in the elongation phase (tau, the inverse value of the rate constant) in the pyrene actin polymerization assay, 2 µM actin, relative to actin alone: ~1.4 fold
B1: human hexameric SEPT2/6/7 complex (complex)
chain 1: MSKQQPTQFINPETPGYVGFANLPNQVHRKSVKKGFEFTLMVVGESGLGKSTLINSLFLTDLYPERVIPGAAEKIERTVQIEASTVEIEERGVKLRLTVVDTPGYGDAINCRDCFKTIISYIDEQFERYLHDESGLNRRHIIDNRVHCCFYFISPFGHGLKPLDVAFMKAIHNKVNIVPVIAKADTLTLKERERLKKRILDEIEEHNIKIYHLPDAESDEDEDFKEQTRLLKASIPFSVVGSNQLIEAKGKKVRGRLYPWGVVEVENPEHNDFLKLRTMLITHMQDLQEVTQDLHYENFRSERLKRGGRKVENEDMNKDQILLEKEAELRRMQEMIARMQAQMQMQMQGGDGDGGALGHHV
chain 2: MAATDIARQVGEGCRTVPLAGHVGFDSLPDQLVNKSVSQGFCFNILCVGETGLGKSTLMDTLFNTKFEGEPATHTQPGVQLQSNTYDLQESNVRLKLTIVSTVGFGDQINKEDSYKPIVEFIDAQFEAYLQEELKIRRVLHTYHDSRIHVCLYFIAPTGHSLKSLDLVTMKKLDSKVNIIPIIAKADAISKSELTKFKIKITSELVSNGVQIYQFPTDDESVAEINGTMNAHLPFAVIGSTEELKIGNKMMRARQYPWGTVQVENEAHCDFVKLREMLIRVNMEDLREQTHTRHYELYRRCKLEEMGFKDTDPDSKPFSLQETYEAKRNEFLGELQKKEEEMRQMFVQRVKEKEAELKEAEKELHEKFDRLKKLHQDEKKKLEDKKKSLDDEVNAFKQRKTAAELLQSQGSQAGGSQTLKRDKEKKNNPWLCTE
chain 3: MSVSARSAAAEERSVNSSTMVAQQKNLEGYVGFANLPNQVYRKSVKRGFEFTLMVVGESGLGKSTLINSLFLTDLYSPEYPGPSHRIKKTVQVEQSKVLIKEGGVQLLLTIVDTPGFGDAVDNSNCWQPVIDYIDSKFEDYLNAESRVNRRQMPDNRVQCCLYFIAPSGHGLKPLDIEFMKRLHEKVNIIPLIAKADTLTPEECQQFKKQIMKEIQEHKIKIYEFPETDDEEENKLVKKIKDRLPLAVVGSNTIIEVNGKRVRGRQYPWGVAEVENGEHCDFTILRNMLIRTHMQDLKDVTNNVHYENYRSRKLAAVTYNGVDNNKNKGQLTKSPLAQMEEERREHVAKMKKMEMEMEQVFEMKVKEKVQKLKDSEAELQRRHEQMKKNLEAQHKELEEKRRQFEDEKANWEAQQRILEQQNSSRTLEKNKKKGKIF
